Reference: patent publication US20130115677
Where a chain is given by its changes, count along the chain named.

Assays:
Assay in all cases: cleavage_in_vitro
[1] = molecular target: T1, BamHI (Bacillus amyloliquefaciens) (UniProt P23940); conditions: NEB4, 37 C, Mg2+
T1 sequence: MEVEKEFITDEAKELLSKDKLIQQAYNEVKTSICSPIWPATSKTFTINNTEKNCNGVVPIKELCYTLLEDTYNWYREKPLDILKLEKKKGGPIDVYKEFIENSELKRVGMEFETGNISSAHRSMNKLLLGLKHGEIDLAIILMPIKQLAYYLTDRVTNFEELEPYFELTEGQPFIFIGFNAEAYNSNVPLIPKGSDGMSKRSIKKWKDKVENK

[2] = molecular target: T2, BamHI-HF E163A/E167T (Bacillus amyloliquefaciens) (UniProt P23940); conditions: NEB4, 37 C, Mg2+
T2 sequence: T1 sequence with E163A, E167T

[3] = system: T3, BspQI (Bacillus sphaericus); conditions: NEB4, 50 C, Mg2+
T3 sequence: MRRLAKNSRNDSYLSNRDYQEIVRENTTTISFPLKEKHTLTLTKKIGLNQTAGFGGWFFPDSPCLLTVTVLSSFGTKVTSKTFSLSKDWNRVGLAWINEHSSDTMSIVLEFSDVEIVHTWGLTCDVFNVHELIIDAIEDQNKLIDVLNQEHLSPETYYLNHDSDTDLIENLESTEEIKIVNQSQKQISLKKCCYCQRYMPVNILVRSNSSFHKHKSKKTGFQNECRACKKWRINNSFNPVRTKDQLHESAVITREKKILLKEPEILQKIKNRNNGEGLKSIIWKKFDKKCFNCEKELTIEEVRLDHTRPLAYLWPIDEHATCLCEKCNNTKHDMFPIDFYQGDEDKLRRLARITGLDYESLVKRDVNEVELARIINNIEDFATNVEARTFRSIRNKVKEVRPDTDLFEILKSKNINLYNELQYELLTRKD

BstXI-HF N65A = conditions: NEB4, 55 C, Mg2+
BstXI = conditions: NEB4, 55 C, Mg2+
[4] = molecular target: EcoRI (Escherichia coli RY13) (UniProt P00642); conditions: NEB4, 37 C, Mg2+; 250 in NEB1 and NEB3
[5] = molecular target: EcoRI-HF K62E (Escherichia coli RY13) (UniProt P00642); conditions: NEB4, 37 C, Mg2+
[6] = molecular target: T4, HindIII (Haemophilus influenzae Rd) (UniProt P43870); conditions: NEB4, 37 C, Mg2+
T4 sequence: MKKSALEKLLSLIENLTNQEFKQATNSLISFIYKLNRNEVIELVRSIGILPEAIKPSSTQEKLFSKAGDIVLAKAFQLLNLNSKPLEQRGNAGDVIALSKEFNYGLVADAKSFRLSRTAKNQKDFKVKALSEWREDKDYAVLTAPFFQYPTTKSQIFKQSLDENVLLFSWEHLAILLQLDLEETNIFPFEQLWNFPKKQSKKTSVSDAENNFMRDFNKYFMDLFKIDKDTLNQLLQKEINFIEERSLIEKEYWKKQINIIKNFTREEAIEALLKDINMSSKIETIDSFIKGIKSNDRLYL

[7] = system: T5, NcoI-HF A2T/R31A (Nocardia corallina); conditions: NEB4, 37 C, Mg2+
T5 sequence: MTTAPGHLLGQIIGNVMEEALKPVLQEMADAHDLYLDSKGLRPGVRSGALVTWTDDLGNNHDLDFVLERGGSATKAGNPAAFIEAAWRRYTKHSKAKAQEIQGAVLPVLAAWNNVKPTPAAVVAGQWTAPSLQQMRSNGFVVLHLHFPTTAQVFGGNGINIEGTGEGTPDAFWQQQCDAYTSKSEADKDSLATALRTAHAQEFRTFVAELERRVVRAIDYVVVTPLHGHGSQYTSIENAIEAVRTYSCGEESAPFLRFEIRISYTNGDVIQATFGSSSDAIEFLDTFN

[8] = system: T6, SapI (Saccharopolyspora sp.); conditions: NEB4, 37 C, Mg2+
T6 sequence: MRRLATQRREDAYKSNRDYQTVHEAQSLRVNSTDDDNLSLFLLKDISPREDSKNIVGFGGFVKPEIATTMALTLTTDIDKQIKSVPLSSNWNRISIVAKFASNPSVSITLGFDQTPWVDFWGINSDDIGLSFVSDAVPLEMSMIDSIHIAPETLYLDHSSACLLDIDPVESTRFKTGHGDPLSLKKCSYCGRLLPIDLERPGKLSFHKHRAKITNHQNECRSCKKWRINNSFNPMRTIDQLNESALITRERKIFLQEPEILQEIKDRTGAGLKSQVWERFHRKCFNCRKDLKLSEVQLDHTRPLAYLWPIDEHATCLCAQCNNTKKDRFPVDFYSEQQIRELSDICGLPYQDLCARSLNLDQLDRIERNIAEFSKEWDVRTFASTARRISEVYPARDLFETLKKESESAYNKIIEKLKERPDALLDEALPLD

[9] = molecular target: T7, ScaI-HF H193A/S201F (Streptomyces caespitosus) (UniProt O52691); conditions: NEB4, 37 C, Mg2+
T7 sequence: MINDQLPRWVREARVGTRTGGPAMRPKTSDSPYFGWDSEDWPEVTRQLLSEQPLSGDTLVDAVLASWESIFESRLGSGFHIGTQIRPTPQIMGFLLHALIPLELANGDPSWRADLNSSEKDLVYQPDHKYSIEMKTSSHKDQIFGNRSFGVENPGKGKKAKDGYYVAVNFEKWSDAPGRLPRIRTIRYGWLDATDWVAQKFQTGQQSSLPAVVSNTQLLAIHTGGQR

[10] = system: T8, SspI (Sphaerotilus species); conditions: NEB4, 37 C, Mg2+
T8 sequence: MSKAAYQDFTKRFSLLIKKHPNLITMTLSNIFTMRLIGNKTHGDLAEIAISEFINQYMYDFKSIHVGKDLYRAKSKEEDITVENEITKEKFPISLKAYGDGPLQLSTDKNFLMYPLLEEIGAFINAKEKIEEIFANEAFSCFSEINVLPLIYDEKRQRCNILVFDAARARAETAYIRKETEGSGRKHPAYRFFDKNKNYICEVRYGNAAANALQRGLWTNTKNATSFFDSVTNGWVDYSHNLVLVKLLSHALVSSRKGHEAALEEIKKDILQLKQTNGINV

## lambda DNA
[1]
  activity (fidelity index): 4
[2]
  activity (fidelity index): > 4000
[3]
  activity (fidelity index): 4
BstXI-HF N65A
  activity (fidelity index): > 250
BstXI
  activity (fidelity index): 4
[4]
  activity (fidelity index): 4
[5]
  activity (fidelity index): 16000
[6]
  activity (fidelity index): 32
[7]
  activity (fidelity index): > 64000
[8]
  activity (fidelity index): 16
[9]
  activity (fidelity index): 1000
[10]
  activity (fidelity index): 16
